B1: L-asparaginase Tli10209 (Thermococcus litoralis DSM 5473; D50G/T70A) (protein)
chain: MSEKRKLERRGAEDMKRILIIGTGGTIASAKTDAGFKSVLTIDEILEKAGIKLKNGYEIDTRNILNIDSALIQPEDWERIAKEVYKALEDYDGIVITHGTDTLAYTASMLTFMIRGINKPVVLTGSMRPVTEEESDAPRNLKAAIRFAMEDVSGIFVAFMDKIMLGCRTSKIRALGLNAFMSINYPDVAYVKGEEVIYNLPQKRFKPKGEPVLDTKYEPRVVFIRLTPGLDGNAIDALVKAGYRGIVLEGYGAGGIPYRKRDILSKIREITPQIPVVMTTQALYDGVDLTKYEVGRKALEAGIIPAKDMTKETTITKLMWALGHTKNVEEVKEIMHTNYADEIEG
B2: L-asparaginase Tli10209 (Thermococcus litoralis DSM 5473; K48L) (protein)
chain: B1 chain with K48L, G50D, A70T
B3: L-asparaginase Tli10209 (Thermococcus litoralis DSM 5473; T70A) (protein)
chain: B1 chain with G50D
B4: L-asparaginase Tli10209 (Thermococcus litoralis DSM 5473; K48L/T70A) (protein)
chain: B1 chain with K48L, G50D
B5: L-asparaginase Tli10209 (Thermococcus litoralis DSM 5473) (protein)
chain: B1 chain with G50D, A70T
B6: L-asparaginase Tli10209 (Thermococcus litoralis DSM 5473; F36Y) (protein)
chain: B1 chain with F36Y, G50D, A70T
B7: L-asparaginase Tli10209 (Thermococcus litoralis DSM 5473; F36Y/T70A) (protein)
chain: B1 chain with F36Y, G50D
B8: L-asparaginase Tli10209 (Thermococcus litoralis DSM 5473; D50G) (protein)
chain: B1 chain with A70T

This is an account of results in article PMC11202230, “The Improved Antineoplastic Activity of Thermophilic L-Asparaginase Tli10209 via Site-Directed Mutagenesis” (Biomolecules, 2024).

Positions count from the first letter of the chain named. Names and notes keep the numbering of the source.

Substrate in this series: NC(=O)C[C@H](N)C(=O)O
The series is described as follows: Nessler reagent assay of ammonia, Michaelis-Menten fit. The conditions noted are these: pH 10, 80 °C, 0.5-18.0 mM L-asparagine, free enzyme. It is filed as biochemical, Thermococcus litoralis. The source says: Nessler reagent assay of ammonia, Michaelis-Menten fit on L-asparaginase Tli10209
As to B1, the Km was found to be 2.68 mM, the kcat was found to be 2050 s⁻¹ and the kcat/Km was found to be 764000 M⁻¹ s⁻¹.

As for B2, the Km came out at 9.62 mM, the kcat is 5080 s⁻¹ and the kcat/Km worked out at 528000 M⁻¹ s⁻¹.

Regarding B3, the Km turned out to be 7.90 mM, the kcat worked out at 4150 s⁻¹ and the kcat/Km came out at 525000 M⁻¹ s⁻¹.

Turning to B4, the Km was 6.65 mM, the kcat came to 2760 s⁻¹ and the kcat/Km was 415000 M⁻¹ s⁻¹.

Regarding B5, the Michaelis-Menten constant (Km) was found to be 6.78 mM, the kcat amounted to 2300 s⁻¹ and the specificity constant (kcat/Km) worked out at 340000 M⁻¹ s⁻¹.

Take B6: the Km came to 7.00 mM, the kcat was found to be 2500 s⁻¹ and the kcat/Km worked out at 357000 M⁻¹ s⁻¹.

In the case of B7, the Km came out at 6.28 mM, the kcat amounted to 2930 s⁻¹ and the kcat/Km was determined as 466000 M⁻¹ s⁻¹.

As to B8, the Michaelis-Menten constant (Km) is on record as 9.03 mM, the kcat came out at 3890 s⁻¹ and the kcat/Km came to 431000 M⁻¹ s⁻¹.

The Km is the substrate concentration at which the rate is half of its maximum. For orientation: kcat means the number of substrate molecules converted per active site and unit of time at saturation. The term kcat/Km denotes the turnover number divided by the Michaelis constant.
